Measurements: PMC8035640

Key:
[1] = molecular target: LchD^GGDEV-His, soluble cytoplasmic fragment of LchD (Lysobacter enzymogenes OH11); test: MST
PilR-His = molecular target: T1, PilR-His (Lysobacter enzymogenes OH11, UniProt A0A5P2TY02 1-471); test: EMSA
T1 sequence: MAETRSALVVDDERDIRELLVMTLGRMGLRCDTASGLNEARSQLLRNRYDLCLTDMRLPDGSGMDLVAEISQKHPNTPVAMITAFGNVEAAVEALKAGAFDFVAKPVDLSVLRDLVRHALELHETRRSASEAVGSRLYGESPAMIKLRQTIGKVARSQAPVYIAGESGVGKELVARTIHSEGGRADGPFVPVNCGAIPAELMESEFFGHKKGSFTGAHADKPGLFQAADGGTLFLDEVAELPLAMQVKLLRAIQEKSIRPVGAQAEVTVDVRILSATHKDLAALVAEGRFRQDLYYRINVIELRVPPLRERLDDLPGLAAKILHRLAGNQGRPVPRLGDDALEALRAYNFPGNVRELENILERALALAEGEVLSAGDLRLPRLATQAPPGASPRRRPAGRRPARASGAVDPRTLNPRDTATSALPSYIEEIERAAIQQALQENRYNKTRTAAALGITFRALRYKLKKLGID

B1: Clp-glutathione S-transferase (GST) (natural protein)
chain: MSANPVAPLTALRRTNSPLLPDGATIERFLAHCHRRRYPSRTDVFRPGDPASTLYYVVSGSVSIITEEEDGRELVLGYFGPGEFVGELGLFIESDHREVILRTRSTCELAEIGHERLYDLLLTRLSLDAPKLLYAIGAQISRRLLDTSRKAGRLAFLDVTDRIVRALHDLAKEPEAMSHPQGTQLRVSRQELSRLVGCSREMAGRVLKKLQADGKLHARGKTVVLYGTR
Kd [1]: 490 nM

B2: PLchD-2c (dsDNA)
DNA 1: TGACCGGAAGGGGCATGGGGACACCCTGGCGTGGAAGCTGGCGCGGCTGG
DNA 2: CCAGCCGCGCCAGCTTCCACGCCAGGGTGTCCCCATGCCCCTTCCGGTCA
binding result (PilR-His): no binding

B3: PLchD-2b (dsDNA)
DNA 1: CCTGCACCGGAATGCAGCCCCCTTGGGCTATGCTCGGCACAGCAGACTGG
DNA 2: CCAGTCTGCTGTGCCGAGCATAGCCCAAGGGGGCTGCATTCCGGTGCAGG
binding result (PilR-His): no binding
